Holding throughout (test): fluorescence anisotropy
Holding throughout (conditions): fluorescein-12-UTP incorporated during transcription; 50 mM Tris pH 7.5, 40 mM KCl, 10 mM MgCl2, 1 mM DTT, 10 nM fluorescein-labeled RNA, 21 C
A general note: Fluorescence polarisation rises when a labelled molecule tumbles more slowly, as on binding a larger partner.

The subject of one series is A3Hhap II (Homo sapiens).
A further series relates to A3G (Homo sapiens).
Series [1] deals with A3C-A3Hhap II (synthetic double domain chimera) (Homo sapiens (synthetic chimera)).

In general, Kd refers to the equilibrium constant for the complex coming apart. Read a high Kd as lower affinity. HIV-1 5'UTR RNA (nt 1-497): the dissociation constant Kd was 0.52 nM in the series on A3Hhap II (Homo sapiens), 6.36 nM in the series with A3G (Homo sapiens) and 0.03 nM in series [1].

For the origin of these results see publication PMC8266076.
